Assay results taken from PMC6514633, “Structural and functional consequences of age-related isomerization in α-crystallins” (The Journal of Biological Chemistry, 2019).
Each block holds one binder with its values, some of them ahead of it. Where no end group is shown, it is not given here. [ ]: non-standard residue; d: D form.

B4: Core αB (cABC, residues 68–153) (domain or fragment, human, UniProt P02511 68-153, looked up)
chain: MRLEKDRFSVNLDVKHFSPEELKVKVLGDVIEVHGKHEERQDEHGFISREFHRKYRIPADVDPLTITSSLSSDGVLTVNGPRKQVS
notes: αB-crystallin, human, α-crystallin core domain, residues 68-153; also called αB core; core of αB

Legend:
[1] = molecular target: core αA (cAAC, residues 59–153) (human, UniProt P02489 59-153, some population of BME-adducted protein); experiment: native MS; competition: core domain 10 μM mixed with an L-Ser and a D-Ser peptide (one with added glycines), 40 μM each (4:1 peptide/domain), 200 mM ammonium acetate pH 6.9; monomeric species, 5+, 6+, 7+ charge states quantified; settings: both partners purified
Chain of core αA (cAAC, residues 59–153) (P02489 59-153): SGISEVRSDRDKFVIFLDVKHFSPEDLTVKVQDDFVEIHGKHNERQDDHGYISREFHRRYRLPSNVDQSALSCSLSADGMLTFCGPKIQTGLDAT

[2] = molecular target: B4; experiment: as above; settings: both partners purified
[3] = molecular target: the molecule itself; experiment: native MS; full-length αB and mutants, 15 μM by monomer, 200 mM ammonium acetate pH 6.9, QExactive Orbitrap; intact spectra and CID with charge deconvolution (UniDec) to oligomeric distributions
[4] = molecular target: the molecule itself; experiment: native MS; core domains analysed alone, 10 μM, 200 mM ammonium acetate pH 6.9, Synapt G1
[5] = molecular target: core αA (cAAC, residues 59-153) (human, UniProt P02489 59-153, some population of BME-adducted protein); experiment: native MS; competition: 10 μM core domain with 40 μM each of L-Ser and D-Ser peptide, 200 mM ammonium acetate pH 6.9; monomeric species, 5+, 6+ and 7+ charge states; approximate dissociation constants calculated from abundance ratios (El-Hawiet et al.); settings: both partners purified
Chain of core αA (cAAC, residues 59-153) (P02489 59-153): as above

binding result [1]: binds | binding result [2]: binds
Binder: GERAIPVSREG [G-Ct-G peptide GERAIPVSREG with L-Ser (appended-glycine L-isomer)]

Kd [1]: 48 µM | Kd [2]: 115 µM
Binder: ERAIPVSRE [Ct peptide ERAIPVSRE with L-Ser (canonical all L-amino acid form)]

B1: Full-length αB-crystallin (WT) (natural protein, human, UniProt P02511 1-175, looked up)
chain: MDIAIHHPWIRRPFFPFHSPSRLFDQFFGEHLLESDLFPTSTSLSPFYLRPPSFLRAPSWFDTGLSEMRLEKDRFSVNLDVKHFSPEELKVKVLGDVIEVHGKHEERQDEHGFISREFHRKYRIPADVDPLTITSSLSSDGVLTVNGPRKQVSGPERTIPITREEKPAVTAAPKK
notes: αB-crystallin, human, full length; Polydisperse oligomers; also called WT αB
binding result [3]: binds

B2: Full-length αB-crystallin D109A (isoAsp-mimic) (natural protein, human, UniProt P02511 1-175, looked up)
chain: MDIAIHHPWIRRPFFPFHSPSRLFDQFFGEHLLESDLFPTSTSLSPFYLRPPSFLRAPSWFDTGLSEMRLEKDRFSVNLDVKHFSPEELKVKVLGDVIEVHGKHEERQAEHGFISREFHRKYRIPADVDPLTITSSLSSDGVLTVNGPRKQVSGPERTIPITREEKPAVTAAPKK
notes: αB-crystallin, human, full length, with D109A; source: expressed and purified in the same manner as WT
binding result [3]: binds

B3: Full-length αB-crystallin S59D (phosphomimic) (natural protein, human, UniProt P02511 1-175, looked up)
chain: MDIAIHHPWIRRPFFPFHSPSRLFDQFFGEHLLESDLFPTSTSLSPFYLRPPSFLRAPDWFDTGLSEMRLEKDRFSVNLDVKHFSPEELKVKVLGDVIEVHGKHEERQDEHGFISREFHRKYRIPADVDPLTITSSLSSDGVLTVNGPRKQVSGPERTIPITREEKPAVTAAPKK
notes: αB-crystallin, human, full length, with S59D; also called αBS59D; source: expressed and purified in the same manner as WT
stoichiometry N [3]: ~18

Binder: B4
stoichiometry N [4]: 2

Kd [5]: 660 µM
Binder: ERAIPV[dS]RE [C-terminal palindromic peptide of αA-crystallin with D-Ser-162 (D-peptide)]
